The source of these data is US20250059282A1 (University of Texas, published 2025).

Test [1] addresses T1, Human PD-L2-HIS (human, UniProt Q9BQ51 20-220).
T1 construct: also called His-tagged human PD-L2; not shown: His tag
T1 sequence: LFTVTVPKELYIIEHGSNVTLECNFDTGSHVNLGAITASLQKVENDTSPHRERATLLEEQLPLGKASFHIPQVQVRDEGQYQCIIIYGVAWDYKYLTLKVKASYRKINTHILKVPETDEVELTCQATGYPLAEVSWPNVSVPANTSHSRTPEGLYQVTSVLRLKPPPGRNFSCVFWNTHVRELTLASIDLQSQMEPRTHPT
Put plainly: ForteBio, IgG, monovalent.

Test [2] has as its target T2, Human PD-L1-HIS (human, UniProt Q9NZQ7 19-238).
T2 construct: also called HIS-tagged monovalent PD-L1; His-tagged human PD-L1; not shown: His tag
Nature of the test: ForteBio, IgG, monovalent.

Test [3] has as its target T2, Human PD-L1-HIS. Nature of the test: ForteBio Octet, IgG; column head says Avid; IgG against Human PD-L1-HIS (head says Avid), not Fab against PD-L1-Fc.
The target in test [4] is T3, Mouse PD-L2-Fc (mouse, UniProt Q9WUL5 20-219, limits assumed).
T3 construct: also called murine PD-L2; not shown: Fc
T3 sequence (looked up): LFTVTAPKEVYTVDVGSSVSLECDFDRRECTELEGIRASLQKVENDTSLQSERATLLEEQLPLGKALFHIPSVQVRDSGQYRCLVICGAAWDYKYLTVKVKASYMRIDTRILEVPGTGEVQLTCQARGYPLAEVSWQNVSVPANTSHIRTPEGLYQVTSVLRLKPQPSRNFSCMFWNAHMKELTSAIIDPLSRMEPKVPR
Put plainly: ForteBio, IgG, avid.

The target in test [5] is T4, Cyno PD-L1-Fc (cynomolgus, UniProt G7PSE7 19-238).
T4 construct: also called cynomolgus PD-L1
Put plainly: ForteBio, IgG, avid.

Test [6] addresses T5, Cyno PD-L2-Fc (cynomolgus, UniProt A0A2K5U5Z4 20-220).
T5 construct: also called cynomolgus PD-L2; not shown: Fc
T5 sequence: T1 sequence with V19A, P62S, S67L, V139I, P166H, T178A, H179Q, M194I
Nature of the test: ForteBio, IgG, avid.

Test [7] has as its target T6, Mouse PD-L1-Fc (mouse, UniProt Q9EP73 19-239, limits assumed).
T6 construct: also called murine PD-L1; not shown: Fc
Put plainly: ForteBio, IgG, avid.

For test [8], the target named is T7, human PD-L2 on CHO cells (human, UniProt Q9BQ51 20-273).
T7 sequence: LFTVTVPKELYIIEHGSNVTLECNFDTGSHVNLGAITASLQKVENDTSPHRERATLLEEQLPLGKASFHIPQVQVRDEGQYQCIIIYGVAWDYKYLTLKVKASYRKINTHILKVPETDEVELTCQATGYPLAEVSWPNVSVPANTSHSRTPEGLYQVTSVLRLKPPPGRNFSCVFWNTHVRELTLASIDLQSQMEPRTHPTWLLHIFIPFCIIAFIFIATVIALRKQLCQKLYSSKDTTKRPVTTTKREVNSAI
Nature of the test: cell-based or functional assay.

The target of test [9] is T8, human PD-L1 on CHO cells (human, UniProt Q9NZQ7 19-290). Nature of the test: cell-based or functional assay.
In test [10] the target is T3, Mouse PD-L2-Fc. Put plainly: ForteBio Octet, IgG, avid.
Test [11] concerns the target T4, Cyno PD-L1-Fc. Put plainly: ForteBio Octet, IgG, avid.
Test [12] concerns the target T5, Cyno PD-L2-Fc. Put plainly: ForteBio Octet, IgG, avid.
In test [13] the target is T6, Mouse PD-L1-Fc. Nature of the test: ForteBio Octet, IgG, avid.
Test [14] deals with T1, Human PD-L2-HIS. Put plainly: ForteBio Octet, IgG, monovalent.
The target of test [15] is T9, Human b-PD-L2-His (human, UniProt Q9BQ51 20-220, biotinylated (b-); sites not stated).
T9 construct: Antigen of the MSD-SET measurements; also called biotinylated human PD-L2-His; not shown: His tag
T9 sequence: T1 sequence
Nature of the test: MSD-SET, Fab, monovalent. As for the experimental part:
(§1) Briefly, solution equilibrium titrations (SET) were performed in PBS +0.1% IgG-Free BSA (PBSF) with antigen held constant at 50 pM and incubated with 3- to 5-fold serial dilutions of Fab starting at 20 nM. Antibodies (20 nM in PBS) were coated onto standard bind MSD®-ECL plates overnight at 4° C. or at room temperature for 30 min. Plates were then blocked by BSA for 30 min with shaking at 700 rpm, followed by three washes with wash buffer (PBSF+0.05% Tween 20). SET samples were applied and incubated on the plates for 150 s with shaking at 700 rpm followed by one wash. Antigen captured on a plate was detected with 250 ng/mL sulfotag-labeled streptavidin in PBSF by incubation on the plate for 3 min. The plates were washed three times with wash buffer and then read on the MSD® Sector Imager 2400 instrument using 1× Read Buffer T with surfactant. The percent free antigen was plotted as a function of titrated antibody in Prism and fit to a quadratic equation to extract the KD. To improve throughput, liquid handling robots were used throughout MSD®-SET experiments, including SET sample preparation.

Test [16] deals with T10, Human b-PD-L1-His (human, UniProt Q9NZQ7 19-238, biotinylated (b-); sites not stated).
T10 construct: Antigen of the MSD-SET measurements; also called biotinylated human PD-L1-His; not shown: His tag
Put plainly: MSD-SET, Fab, monovalent. How it is done:
as §1

Test [17] has as its target T9, Human b-PD-L2-His. Put plainly: MSD-SET, Fab, monovalent. As for the experimental part:
as §1
The source holds these as a separate data set.

The target in test [18] is T10, Human b-PD-L1-His. Put plainly: MSD-SET, Fab, monovalent. As for the experimental part: as §1
This is another data set of the same source.

Test [19] addresses T11, Human PD-L2-Fc (human, UniProt Q9BQ51 20-220).
T11 construct: also called dimeric PD-L2; PD-L2 (dimeric ligand); not shown: human IgG1 Fc constant region
T11 sequence: T1 sequence
Put plainly: ForteBio, Fab, monovalent. How it is done:
(§2) ForteBio KD measurements—ForteBio affinity measurements were performed on an Octet® RED384 generally as previously described (see, e.g., Estep et al., 2013). Briefly, ForteBio affinity measurements were performed by loading IgGs on-line onto AHQ sensors. Sensors were equilibrated off-line in assay buffer for 30 min and then monitored on-line for 60 seconds for baseline establishment. Sensors with loaded IgGs were exposed to 100 nM antigen for 3 minutes, and afterwards were transferred to assay buffer for 3 min for off-rate measurement. For monovalent affinity assessment Fabs were used instead of IgGs. For this assessment the […] Fc fusion antigen was loaded on-line onto the AHQ sensors. Sensors were equilibrated off-line in assay buffer for 30 min and then monitored on-line for 60 seconds for baseline establishment. Sensors with loaded antigen were exposed to 100 nM Fab for 3 minutes, and afterwards they were transferred to assay buffer for 3 min for off-rate measurement. All kinetics were analyzed using the 1:1 binding model.

Test [20] addresses T12, Human PD-L1-Fc (human, UniProt Q9NZQ7 19-238).
T12 construct: also called dimeric PD-L1; PD-L1 (dimeric ligand); not shown: human IgG1 Fc constant region
Nature of the test: ForteBio, Fab, monovalent. How it is done:
as §2

Test [21] concerns the target T11, Human PD-L2-Fc. Nature of the test: ForteBio Octet, Fab, monovalent. How it is done:
as §2

Test [22] has as its target T12, Human PD-L1-Fc. Put plainly: ForteBio Octet, Fab, monovalent. How it is done: as §2
The target in test [23] is T3, Mouse PD-L2-Fc. Nature of the test: ForteBio, IgG, avid. This is another data set of the same source.
In test [24] the target is T4, Cyno PD-L1-Fc. Put plainly: ForteBio, IgG, avid. This is another data set of the same source.
Test [25] has as its target T5, Cyno PD-L2-Fc. Nature of the test: ForteBio, IgG, avid. The source holds these as a separate data set.
The target in test [26] is T6, Mouse PD-L1-Fc. Put plainly: ForteBio, IgG, avid. This is another data set of the same source.
Test [27] has as its target T1, Human PD-L2-HIS. Nature of the test: ForteBio, IgG, monovalent. The source holds these as a separate data set.
Test [28] has as its target T2, Human PD-L1-HIS. Put plainly: ForteBio, IgG, monovalent. This is another data set of the same source.
Test [29] deals with T7, human PD-L2 on CHO cells. Put plainly: cell-based or functional assay. This is another data set of the same source.
The target in test [30] is T8, human PD-L1 on CHO cells. Put plainly: cell-based or functional assay. The source holds these as a separate data set.
For test [31], the target named is T11, Human PD-L2-Fc. Nature of the test: ForteBio Octet, IgG, avid.
Test [32] has as its target T12, Human PD-L1-Fc. Nature of the test: ForteBio Octet, IgG, avid.

Where a chain is given by its changes, count along the chain named. Where two headings read alike, the source gives them in different places.

T10 sequence (Q9NZQ7 19-238 limits assumed): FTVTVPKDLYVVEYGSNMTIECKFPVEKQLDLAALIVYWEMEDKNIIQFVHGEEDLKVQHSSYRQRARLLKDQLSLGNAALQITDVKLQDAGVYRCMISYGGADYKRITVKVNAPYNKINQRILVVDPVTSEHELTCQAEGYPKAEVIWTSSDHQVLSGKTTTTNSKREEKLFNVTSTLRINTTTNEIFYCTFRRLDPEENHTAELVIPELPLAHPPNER
T12 sequence (Q9NZQ7 19-238 limits assumed): as above
T2 sequence (Q9NZQ7 19-238 limits assumed): as above
T4 sequence (G7PSE7 entry or part of it limits assumed): as the sequence (Q9NZQ7 19-238 limits assumed) above, with A33T, A34S, S62N, R68Q, Q82R, F173L, T185A, T192I, H215L counted along it
T6 sequence (Q9EP73 19-239 limits assumed): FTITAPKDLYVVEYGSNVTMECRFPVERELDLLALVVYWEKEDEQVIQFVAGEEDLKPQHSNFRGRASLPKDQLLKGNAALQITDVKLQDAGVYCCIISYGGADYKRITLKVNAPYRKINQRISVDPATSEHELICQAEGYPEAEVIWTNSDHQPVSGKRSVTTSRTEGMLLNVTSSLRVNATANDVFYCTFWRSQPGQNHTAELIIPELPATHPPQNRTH
T8 sequence (Q9NZQ7 19-290 limits assumed): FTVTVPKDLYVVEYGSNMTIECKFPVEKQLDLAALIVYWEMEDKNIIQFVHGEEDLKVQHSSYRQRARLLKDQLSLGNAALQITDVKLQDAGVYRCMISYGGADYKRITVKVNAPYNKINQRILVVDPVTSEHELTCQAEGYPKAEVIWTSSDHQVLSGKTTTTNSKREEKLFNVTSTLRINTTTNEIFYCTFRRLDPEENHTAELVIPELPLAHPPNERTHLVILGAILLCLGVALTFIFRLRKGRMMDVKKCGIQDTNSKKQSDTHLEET

B1: BiPDL4-14 (antibody, V domains shown)
VH: QVQLVESGGGVVQPGRSLRLSCAASGFTFDEYGMHWVRQAPGKGLEWVAVIGYDGLNKYYADSVKGRFTISRDNSKNTLYLQMNSLRAEDTAVYYCARAGIEYSYAYTDYWGQGTLVTVSS
VL: EIVLTQSPGTLSLSPGERATLSCRASQFVYSSDLAWYQQKPGQAPRLLIYGASTRKTGIPDRFSGSGSGTDFTLTISRLEPEDFAVYYCLQFGWWPPRTFGGGTKVEIK
notes: Fourth generation, IgG
Regarding B1, the dissociation constant (Kd) worked out at 738 pM in the test with Human PD-L2-HIS [1]; 2260 pM with Human PD-L1-HIS [2]; 692 pM with Human PD-L1-HIS [3]; 7880 pM with Mouse PD-L2-Fc [4]; 508 pM with Cyno PD-L1-Fc [5]; 640 pM with Cyno PD-L2-Fc [6]. The Kd turned out to be 400 pM with Mouse PD-L1-Fc [7]; 7880 pM with Mouse PD-L2-Fc [10]; 508 pM in the test with Cyno PD-L1-Fc [11]; 640 pM with Cyno PD-L2-Fc [12]; 400 pM with Mouse PD-L1-Fc [13]; 738 pM with Human PD-L2-HIS [14]. For the same molecule, the “EC50 (read off the curve); Fold induction of luciferase, Promega: CHO-PD-L1/PD-L2 dual cells with PD-1 Jurkat reporter cells (PD-L1 and PD-L2 not separable)” value with human PD-L2 on CHO cells [8] and with human PD-L1 on CHO cells [9] was roughly 300 pM in each case.

B2: BiPDL4-34 Fab (Fab, V domains shown)
VH: B1 VH with V12I, D30S, E31A, G33L, V50A, L56M
VL: B1 VL with T54A, K56A, T57A, L90M
notes: Fab made by papain digestion of the IgG
B2: the Kd came out at 52 pM in the test with Human b-PD-L2-His [15]; 960 pM with Human b-PD-L1-His [16]; 52 pM in the test with Human b-PD-L2-His [17]; 960 pM with Human b-PD-L1-His [18]; 560 pM with Human PD-L2-Fc [19]; 2170 pM with Human PD-L1-Fc [20]. For the same molecule, the Kd with Human PD-L2-Fc [21] worked out at 560 pM; with Human PD-L1-Fc [22], 6850 pM.

B3: BiPDL4-14 Fab (Fab, V domains shown)
VH: B1 VH
VL: B1 VL
notes: as for B2
Turning to B3, the Kd in the test with Human b-PD-L2-His [15] was found to be 110 pM; with Human b-PD-L1-His [16], 120 pM; with Human b-PD-L2-His [17], 110 pM; with Human b-PD-L1-His [18], 120 pM; in the test with Human PD-L2-Fc [19], 402 pM; with Human PD-L1-Fc [20], 692 pM. Besides, the Kd with Human PD-L2-Fc [21] came out at 402 pM; in the test with Human PD-L1-Fc [22], 2260 pM.

B4: BiPDL3-14 (antibody, V domains shown)
VH: QVQLQQWGAGLLKPSETLSLTCAVYGGSLSGYPWSWIRQPPGKGLEWIGETDVSGWTDYNPSLKSRVTISVDTSKNQFSLKLSSVTAADTAVYYCARDGRRMGTPSFDIWGQGTMVTVSS
VL: DIQMTQSPSSVSASVGDRVTITCRASQGINSFLAWYQQKPGKAPKLLIYAASSLNSGVPSRFSGSGSGTDFTLTISSLQPEDFATYYCQKAVYFPPTFGGGTKVEIK
notes: IgG; also called ADI-37464; 37464
As for B4, the Kd was found to be 533 pM with Mouse PD-L2-Fc [23]; 371 pM in the test with Cyno PD-L1-Fc [24]; 543 pM in the test with Cyno PD-L2-Fc [25]; 2340 pM in the test with Mouse PD-L1-Fc [26]; 684 pM in the test with Human PD-L2-HIS [27]; 3930 pM with Human PD-L1-HIS [28]. The “EC50 (read off the curve); Luc Activity, Promega CHO-PDL1/PD-L2 dual cells with NFAT-Luc Jurkat T cells (PD-L1 and PD-L2 not separable)” value with human PD-L2 on CHO cells [29] and with human PD-L1 on CHO cells [30] was roughly 2000 pM each time.

B5: BiPDL3-13 (antibody, V domains shown)
VH: B4 VH
VL: B4 VL with M4L, N30S, F32W, N55Q, K90Q, A91Y
notes: Third generation, IgG
For B5, the Kd with Mouse PD-L2-Fc [10] worked out at 1220 pM; with Cyno PD-L1-Fc [11] it was 2340 pM; in the test with Human PD-L2-Fc [31], 431 pM; in the test with Cyno PD-L2-Fc [12], 688 pM; with Human PD-L1-Fc [32], 3280 pM. Besides, in the test with Mouse PD-L1-Fc [13], the binding result is “no binding (tested: 100 nM antigen)”.
